According to US20020102651A1 (Dana-Farber, published 2002):

Molecular target: T1, human B7-4M (B7-4 membrane form), expressed on transfected COS or CHO cells (human, UniProt Q9NZQ7 19-290)
T1 construct: also called 292
Test: FACS on B7-4M-transfected COS cells
Description: COS cells were transfected with either vector DNA (pCDNAI), or an expression plasmid containing the B7-4M cDNA. After 72 hours, the tansfected COS cells were detached by incubation in PBS containing 0.5 mM EDTA for 30 min. at 37° C.
The ability of COS cells expressing B7-4M to bind to various T cell ligands and antibodies was tested. […] The ability of COS cells expressing B7-4M to bind to IgG and murine ICOS-his fusion protein was also tested. No binding of human B7-4 to murine ICOS was detected (FIG. 9).

T1 sequence (Q9NZQ7 19-290): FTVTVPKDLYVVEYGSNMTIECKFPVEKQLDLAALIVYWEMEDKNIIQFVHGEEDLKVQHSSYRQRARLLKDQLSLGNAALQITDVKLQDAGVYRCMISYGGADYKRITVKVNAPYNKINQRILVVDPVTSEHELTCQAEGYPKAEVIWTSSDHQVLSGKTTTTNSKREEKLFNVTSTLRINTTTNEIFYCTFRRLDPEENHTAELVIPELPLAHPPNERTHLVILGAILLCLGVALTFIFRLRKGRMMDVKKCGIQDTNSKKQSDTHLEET

B1: murine ICOS-his fusion protein (receptor, mouse, UniProt Q9WVS0 21-144, looked up)
chain: EINGSADHRMFSFHNGGVQISCKYPETVQQLKMRLFREREVLCELTKTKGSGNAVSIKNPMLCLYHLSNNSVSFFLNNPDSSQGSYYFCSLSIFDPPPFQERNLSGGYLHIYESQLCCQLKLWL
notes: not shown: his tag
B1: no binding.
